From patent US20200199241A1 (Chugai, published 2020) come the findings set out here.

Test [1] has as its target T1, FcγRIa (human, UniProt P12314 16-292, limits assumed).
T1 construct: also called FcgRIa; CD64
Description: SPR (Biacore), FcγR over captured antibody. (In SPR one partner is held on a chip, and binding of the other changes the refractive index at the surface.)
T1 sequence (P12314 16-292 limits assumed): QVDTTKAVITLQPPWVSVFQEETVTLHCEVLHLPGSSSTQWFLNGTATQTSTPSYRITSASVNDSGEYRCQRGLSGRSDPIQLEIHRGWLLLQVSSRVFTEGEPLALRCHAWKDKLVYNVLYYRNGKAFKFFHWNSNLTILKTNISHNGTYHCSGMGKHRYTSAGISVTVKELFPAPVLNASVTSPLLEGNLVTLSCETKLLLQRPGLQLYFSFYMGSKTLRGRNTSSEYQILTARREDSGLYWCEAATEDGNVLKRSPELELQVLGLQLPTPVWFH

The target of test [2] is T2, FcγRIIb (human, UniProt P31994 43-217, limits assumed).
T2 construct: also called FcgRIIb; FcγIIB
T2 sequence: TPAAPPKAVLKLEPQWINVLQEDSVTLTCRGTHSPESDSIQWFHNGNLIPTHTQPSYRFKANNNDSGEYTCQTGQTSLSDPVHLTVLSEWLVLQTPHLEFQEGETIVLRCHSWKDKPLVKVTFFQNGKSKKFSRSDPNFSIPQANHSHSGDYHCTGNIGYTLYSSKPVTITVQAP
Description: SPR (Biacore), FcγR over captured antibody.

For another test, the target named is T3, FcγRIIIa type V (human, UniProt P08637 17-208, limits assumed).
T3 construct: also called FcγRIIIaV; FcgRIIIaV
Description: SPR (Biacore), FcγR over captured antibody.

In test [3] the target is T4, FcγRIIa type H (human, UniProt P12318 36-217).
T4 construct: also called FcγRIIaH; FcγRIIH
T4 sequence: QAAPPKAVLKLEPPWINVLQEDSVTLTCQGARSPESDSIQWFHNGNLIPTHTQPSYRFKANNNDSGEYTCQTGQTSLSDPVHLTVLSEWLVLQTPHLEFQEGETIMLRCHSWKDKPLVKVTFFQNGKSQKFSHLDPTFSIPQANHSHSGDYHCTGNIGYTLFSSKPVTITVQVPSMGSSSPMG
Description: SPR (Biacore), FcγR over captured antibody.

The target in test [4] is T5, FcγRIIb (human, UniProt P31994 43-217, limits assumed).
T5 construct: also called FcγIIB; CD32
T5 sequence: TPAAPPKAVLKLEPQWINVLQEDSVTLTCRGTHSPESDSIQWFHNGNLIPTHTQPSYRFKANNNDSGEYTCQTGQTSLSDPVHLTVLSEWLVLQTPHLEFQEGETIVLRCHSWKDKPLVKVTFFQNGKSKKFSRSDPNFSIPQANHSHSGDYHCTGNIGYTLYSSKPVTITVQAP
The test can be described thus: SPR (Biacore), method of Example 14.

Test [5] addresses T6, FcγRIa (human, UniProt P12314 16-292, limits assumed).
T6 construct: also called CD64
The test can be described thus: SPR (Biacore), method of Example 14.
T6 sequence (P12314 16-292 limits assumed): as the sequence (P12314 16-292 limits assumed) above

In the next test the target is T7, FcγRIIa type R (human, UniProt P12318 36-217).
T7 construct: also called FcγRIIaR; FcγRIIa(R)
T7 chain: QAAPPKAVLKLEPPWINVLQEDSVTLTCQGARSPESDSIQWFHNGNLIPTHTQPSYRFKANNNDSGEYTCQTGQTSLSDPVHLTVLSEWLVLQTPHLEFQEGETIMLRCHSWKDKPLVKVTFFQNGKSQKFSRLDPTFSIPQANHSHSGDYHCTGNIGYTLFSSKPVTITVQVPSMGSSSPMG
Description: SPR (Biacore), method of Example 14.

The target of test [6] is T8, FcγRIIa type H (human, UniProt P12318 36-217).
T8 construct: also called FcγRIIaH; FcγRIIa(H)
T8 sequence: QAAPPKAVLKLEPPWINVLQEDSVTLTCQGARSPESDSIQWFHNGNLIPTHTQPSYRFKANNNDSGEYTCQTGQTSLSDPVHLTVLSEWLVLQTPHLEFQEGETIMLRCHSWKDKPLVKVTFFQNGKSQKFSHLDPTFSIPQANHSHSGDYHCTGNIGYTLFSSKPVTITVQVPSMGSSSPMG
Description: SPR (Biacore), method of Example 14.

Test [7] has as its target T5, FcγRIIb. Description: ratio of SPR KD values, parent IL6R-B3/IL6R-L.
Description: Furthermore, KD(IIaR)/KD(IIb) and KD(IIaH)/KD(IIb) in the table respectively represent the value obtained by dividing the KD value of each variant for FcγRIIaR by the KD value of each variant for FcγRIIb, and the value obtained by dividing the KD value of each variant for FcγRIIaH by the KD value of each variant for FcγRIIb. KD(IIb) of the parent polypeptide/KD(IIb) of the altered polypeptide refers to the value obtained by dividing the KD value of the parent polypeptide for FcγRIIb by the KD value of each variant for FcγRIIb.

T3 sequence (P08637 other isoform, or with tags, fused parts or gaps limits assumed): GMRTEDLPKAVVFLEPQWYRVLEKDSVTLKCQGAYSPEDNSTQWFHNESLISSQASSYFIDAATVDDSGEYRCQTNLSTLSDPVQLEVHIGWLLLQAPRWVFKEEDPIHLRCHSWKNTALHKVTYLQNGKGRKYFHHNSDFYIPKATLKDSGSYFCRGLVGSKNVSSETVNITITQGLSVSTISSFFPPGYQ

B1: IL6R-2B002/IL6R-L (antibody, human IgG1)
heavy: QVQLQESGPGLVKPSETLSLTCAVSGHSISHDHAWSWVRQPPGEGLEWIGFISYSGITNYNPSLQGRVTISRDNSKNTLYLQMNSLRAEDTAVYYCARSLARTTAMDYWGEGTLVTVSSASTKGPSVFPLAPSSKSTSGGTAALGCLVKDYFPEPVTVSWNSGALTSGVHTFPAVLQSSGLYSLSSVVTVPSSSLGTQTYICNVNHKPSNTKVDKKVEPKSCDKTHTCPPCPAPDLLGGDSVFLFPPKPKDTLMISRTPEVTCVVVDVSHEDPEVKFNWYVDGVEVHNAKTKPREEQYNSTYRVVSVLTVLHQDWLNGKEYKCKVSNKALPAPIEKTISKAKGQPREPQVYTLPPSRDELTKNQVSLTCLVKGFYPSDIAVEWESNGQPENNYKTTPPVLDSDGSFFLYSKLTVDKSRWQQGNVFSCSVMHEALHNHYTQESLSLSP
light: DIQMTQSPSSLSASVGDRVTITCRASQDISSYLNWYQQKPGKAPKLLIYYTSRLHSGVPSRFSGSGSGTDFTFTISSLQPEDIATYYCQQGNTLPYTFGQGTKVEIK
notes: IgG1; Fc variant of IL6R-B3; copies: 2 + 2
For orientation: Kd means the concentration at which binding is half-saturated. As for B1, the dissociation constant Kd with FcγRIa [1] came out at 6.4 nM; with FcγRIIb [2] it was 930 nM; with FcγRIIIa type V, 53000 nM; with FcγRIIa type H [3], 86000 nM.

B2: IL6R-BP142/IL6R-L (antibody, human IgG1)
heavy: QVQLQESGPGLVKPSETLSLTCAVSGHSISHDHAWSWVRQPPGEGLEWIGFISYSGITNYNPSLQGRVTISRDNSKNTLYLQMNSLRAEDTAVYYCARSLARTTAMDYWGEGTLVTVSSASTKGPSVFPLAPSSKSTSGGTAALGCLVKDYFPEPVTVSWNSGALTSGVHTFPAVLQSSGLYSLSSVVTVPSSSLGTQTYICNVNHKPSNTKVDKKVEPKSCDKTHTCPPCPAPELLGGDSVFLFPPKPKDTLMISRTPEVTCVVVDVSHEDPEVKFNWYVDGVEVHNAKTKPREEQYNSTYRVVSVLTVLHQDWLNGKEYKCKVSNNALPAPIEKTISKAKGQPREPQVYTLPPSRDELTKNQVSLTCLVKGFYPSDIAVEWESNGQPENNYKTTPPVLDSDGSFFLYSKLTVDKSRWQQGNVFSCSVMHEALHNHYTQESLSLSP
light: DIQMTQSPSSLSASVGDRVTITCRASQDISSYLNWYQQKPGKAPKLLIYYTSRLHSGVPSRFSGSGSGTDFTFTISSLQPEDIATYYCQQGNTLPYTFGQGTKVEIK
notes: as for B1
For B2, the Kd was 5.3 nM with FcγRIa [1], 1200 nM with FcγRIIb [2], 110000 nM with FcγRIIIa type V and 93000 nM in the test with FcγRIIa type H [3].

B3: IL6R-BP192/IL6R-L (antibody, human IgG1)
heavy: QVQLQESGPGLVKPSETLSLTCAVSGHSISHDHAWSWVRQPPGEGLEWIGFISYSGITNYNPSLQGRVTISRDNSKNTLYLQMNSLRAEDTAVYYCARSLARTTAMDYWGEGTLVTVSSASTKGPSVFPLAPSSKSTSGGTAALGCLVKDYFPEPVTVSWNSGALTSGVHTFPAVLQSSGLYSLSSVVTVPSSSLGTQTYICNVNHKPSNTKVDKKVEPKSCDKTHTCPPCPAPDLLGGDSVFLFPPKPKDTLMISRTPEVTCVVVDVSDEDGEVKFNWYVDGVEVHNAKTKPREEQDNSTYRVVSVLTVLHQDWLNGKEYKCKVSNKALPKPIEKTISKAKGQPREPQVYTLPPSRDELTKNQVSLTCLVKGFYPSDIAVEWESNGQPENNYKTTPPVLDSDGSFFLYSKLTVDKSRWQQGNVFSCSVMHEALHNHYTQESLSLSP
light: DIQMTQSPSSLSASVGDRVTITCRASQDISSYLNWYQQKPGKAPKLLIYYTSRLHSGVPSRFSGSGSGTDFTFTISSLQPEDIATYYCQQGNTLPYTFGQGTKVEIK
notes: Anti-IL-6R human IgG1 variant; copies: 2 + 2
Take B3: the Kd with FcγRIIb [4] came to 110 nM; in the test with FcγRIa [5], 6.6 nM; in the test with FcγRIIa type R, 2600 nM; with FcγRIIa type H [6], 32000 nM. In the test with FcγRIIb [7], the “KD(IIb) of the parent polypeptide/KD(IIb) of altered polypeptide” value (“KD(IIb)” below) is 27.3 fold.

B4: IL6R-BP202/IL6R-L (antibody, human IgG1)
heavy: QVQLQESGPGLVKPSETLSLTCAVSGHSISHDHAWSWVRQPPGEGLEWIGFISYSGITNYNPSLQGRVTISRDNSKNTLYLQMNSLRAEDTAVYYCARSLARTTAMDYWGEGTLVTVSSASTKGPSVFPLAPSSKSTSGGTAALGCLVKDYFPEPVTVSWNSGALTSGVHTFPAVLQSSGLYSLSSVVTVPSSSLGTQTYICNVNHKPSNTKVDKKVEPKSCDKTHTCPPCPAPELLGDDSVFLFPPKPKDTLMISRTPEVTCVVVDVSHEDGEVKFNWYVDGVEVHNAKTKPREEQYNSTYRVVSVLTVLHQDWLNGKEYKCKVSNAALPRPIEKTISKAKGQPREPQVYTLPPSRDELTKNQVSLTCLVKGFYPSDIAVEWESNGQPENNYKTTPPVLDSDGSFFLYSKLTVDKSRWQQGNVFSCSVMHEALHNHYTQESLSLSP
light: DIQMTQSPSSLSASVGDRVTITCRASQDISSYLNWYQQKPGKAPKLLIYYTSRLHSGVPSRFSGSGSGTDFTFTISSLQPEDIATYYCQQGNTLPYTFGQGTKVEIK
notes: as for B3
As for B4, the Kd was determined as 64 nM in the test with FcγRIIb [4], 95 nM with FcγRIa [5], 1200 nM with FcγRIIa type R and 92000 nM with FcγRIIa type H [6]. In the test with FcγRIIb [7], the “KD(IIb)” value turned out to be 48.4 fold.

B5: IL6R-BP201/IL6R-L (antibody, human IgG1)
heavy: QVQLQESGPGLVKPSETLSLTCAVSGHSISHDHAWSWVRQPPGEGLEWIGFISYSGITNYNPSLQGRVTISRDNSKNTLYLQMNSLRAEDTAVYYCARSLARTTAMDYWGEGTLVTVSSASTKGPSVFPLAPSSKSTSGGTAALGCLVKDYFPEPVTVSWNSGALTSGVHTFPAVLQSSGLYSLSSVVTVPSSSLGTQTYICNVNHKPSNTKVDKKVEPKSCDKTHTCPPCPAPDLLGDDSVFLFPPKPKDTLMISRTPEVTCVVVDVSHEDGEVKFNWYVDGVEVHNAKTKPREEQYNSTYRVVSVLTVLHQDWLNGKEYKCKVSNKALPRPIEKTISKAKGQPREPQVYTLPPSRDELTKNQVSLTCLVKGFYPSDIAVEWESNGQPENNYKTTPPVLDSDGSFFLYSKLTVDKSRWQQGNVFSCSVMHEALHNHYTQESLSLSP
light: DIQMTQSPSSLSASVGDRVTITCRASQDISSYLNWYQQKPGKAPKLLIYYTSRLHSGVPSRFSGSGSGTDFTFTISSLQPEDIATYYCQQGNTLPYTFGQGTKVEIK
notes: as for B3
For B5, the dissociation constant Kd came to 40 nM in the test with FcγRIIb [4], 51 nM in the test with FcγRIa [5], 840 nM with FcγRIIa type R and 69000 nM in the test with FcγRIIa type H [6]. For the same molecule, the “KD(IIb)” value with FcγRIIb [7] was 77.1 fold.

B6: IL6R-BP136/IL6R-L (antibody, human IgG1)
heavy: QVQLQESGPGLVKPSETLSLTCAVSGHSISHDHAWSWVRQPPGEGLEWIGFISYSGITNYNPSLQGRVTISRDNSKNTLYLQMNSLRAEDTAVYYCARSLARTTAMDYWGEGTLVTVSSASTKGPSVFPLAPSSKSTSGGTAALGCLVKDYFPEPVTVSWNSGALTSGVHTFPAVLQSSGLYSLSSVVTVPSSSLGTQTYICNVNHKPSNTKVDKKVEPKSCDKTHTCPPCPAPELLGGDSVFLFPPKPKDTLMISRTPEVTCVVVDVSHEDPEVKFNWYVDGVEVHNAKTKPREEQYNSTYRVVSVLTVLHQDWLNGKEYKCKVSNAALPAPIEKTISKAKGQPREPQVYTLPPSRDELTKNQVSLTCLVKGFYPSDIAVEWESNGQPENNYKTTPPVLDSDGSFFLYSKLTVDKSRWQQGNVFSCSVMHEALHNHYTQESLSLSP
light: DIQMTQSPSSLSASVGDRVTITCRASQDISSYLNWYQQKPGKAPKLLIYYTSRLHSGVPSRFSGSGSGTDFTFTISSLQPEDIATYYCQQGNTLPYTFGQGTKVEIK
notes: as for B1
Consider B6, for which the dissociation constant Kd was found to be 6.6 nM with FcγRIa [1], 800 nM in the test with FcγRIIb [2], 69000 nM with FcγRIIIa type V and 38000 nM with FcγRIIa type H [3].

B7: IL6R-BP204/IL6R-L (antibody, human IgG1)
heavy: QVQLQESGPGLVKPSETLSLTCAVSGHSISHDHAWSWVRQPPGEGLEWIGFISYSGITNYNPSLQGRVTISRDNSKNTLYLQMNSLRAEDTAVYYCARSLARTTAMDYWGEGTLVTVSSASTKGPSVFPLAPSSKSTSGGTAALGCLVKDYFPEPVTVSWNSGALTSGVHTFPAVLQSSGLYSLSSVVTVPSSSLGTQTYICNVNHKPSNTKVDKKVEPKSCDKTHTCPPCPAPDLLGGDSVFLFPPKPKDTLMISRTPEVTCVVVDVSHEDGEVKFNWYVDGVEVHNAKTKPREEQYNSTYRVVSVLTVLHQDWLNGKEYKCKVSNAALPRPIEKTISKAKGQPREPQVYTLPPSRDELTKNQVSLTCLVKGFYPSDIAVEWESNGQPENNYKTTPPVLDSDGSFFLYSKLTVDKSRWQQGNVFSCSVMHEALHNHYTQESLSLSP
light: DIQMTQSPSSLSASVGDRVTITCRASQDISSYLNWYQQKPGKAPKLLIYYTSRLHSGVPSRFSGSGSGTDFTFTISSLQPEDIATYYCQQGNTLPYTFGQGTKVEIK
notes: as for B3
B7: the dissociation constant Kd in the test with FcγRIIb [4] was 250 nM; with FcγRIa [5], 7.6 nM; with FcγRIIa type R, 4500 nM; in the test with FcγRIIa type H [6], 21000 nM. For the same molecule, in the test with FcγRIIb [7], the “KD(IIb)” value turned out to be 12.2 fold.
